Experimental data: doi:10.1101/789909 (bioRxiv, 2019)

Key:
[1] = target: purified DmsD (E. coli) (UniProt P69853); assay: SPR
[2] = target: T1, EcTatBC with 6xHis tag (complex of TatB and TatC), purified (E. coli, UniProt P69425 1-171; P69423 1-258); assay: SPR
T1 sequence 1: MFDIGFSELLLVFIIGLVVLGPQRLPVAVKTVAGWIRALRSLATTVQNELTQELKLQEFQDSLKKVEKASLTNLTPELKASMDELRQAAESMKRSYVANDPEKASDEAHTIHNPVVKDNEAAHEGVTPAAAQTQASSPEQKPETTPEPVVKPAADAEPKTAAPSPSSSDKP
T1 sequence 2: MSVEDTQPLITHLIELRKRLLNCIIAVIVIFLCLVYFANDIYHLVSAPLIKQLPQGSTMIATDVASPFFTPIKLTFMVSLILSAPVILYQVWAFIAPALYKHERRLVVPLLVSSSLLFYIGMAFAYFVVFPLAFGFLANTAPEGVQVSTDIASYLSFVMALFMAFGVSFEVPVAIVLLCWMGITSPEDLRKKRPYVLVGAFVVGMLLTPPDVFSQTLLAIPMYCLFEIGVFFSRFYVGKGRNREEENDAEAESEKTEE

Question: With “ssDmsA_45 (printed ssDmsD_45), truncated form of ssDmsA-GFP (domain or fragment)” as the molecule, how does the Kd [1] read?
Answer: 55.9 nM

B1: purified DmsD (natural protein)
chain: MTHFSQQDNFSVAARVLGALFYYAPESAEAAPLVAVLTSDGWETQWPLPEASLAPLVTAFQTQCEETHAQAWQRLFVGPWALPSPPWGSVWLDRESVLFGDSTLALRQWMREKGIQFEMKQNEPEDHFGSLLLMAAWLAENGRQTECEELLAWHLFPWSTRFLDVFIEKAEHPFYRALGELARLTLAQWQSQLLIPVAVKPLFR
Question: Does B1 bind [2]?
Answer: binds
